B1: azurin: 128 amino acid P. aeruginosa protein with anticancer, anti-HIV-1 and antiparasitic activity (protein, UniProt P00282 21-148, looked up)
Azurin: AECSVDIQGNDQMQFNTNAITVDKSCKQFTVNLSHPGNLPKNVMGHNWVLSTAADMQGVVTDGMASGLDKDYLKPDDSRVIAHTKLIGSGEKDSVTFDVSKLKEGEQYMFFCTFPGHSALMKGTLTLK
B2: MPT63 (protein, UniProt P9WIP1 30-159, looked up)
Immunogenic protein MPT63: AYPITGKLGSELTMTDTVGQVVLGWKVSDLKSSTAVIPGYPVAGQVWEATATVNAIRGSVTPAVSQFNARTADGINYRVLWQAAGPDTISGATIPQGEQSTGKIYFDVTGPSPTIVAMNNGMEDLLIWEP

Assays:
[1] = tested on: HIV-1 virus, three clades (European, Indian and African origin); conditions: three clades of HIV-1; due to interference in entry of HIV-1 to host cells; cited from earlier work
HIV-1 NL4-3 = assay: Inhibition of HIV-1 NL4-3 replication in peripheral blood lymphocytes (p24 antigen ELISA); type: cell-based; conditions: FIG. 2, similar to Enfuvirtide (T20)
[2] = tested on: HIV-1 Env SF162 mediated fusion of HeLa effector cells with HEK293-CCR5 target cells expressing human CD4; type: cell-based; conditions: β-Gal activity at 570 nm after 2.5 h at 37° C.; FIG. 4

Molecule | growth inhibition of HIV-1 [1] [%] | EC50 (HIV-1 NL4-3) [nM] | inhibition of cell to cell fusion compared to positive control Enfuvirtide (T20) [2]
B1 | ≥ 90 | – | –
B2 | – | 0.01 | more inhibition of cell to cell fusion
